Source: patent US20160032001A1 (APEXIGEN, published 2016)
Read-outs that look alike come from different tables or passages of the source.

Legend:
[1] = target: T1, RANKL expressed on the surface of 293 cells (UniProt O14788 1-317, limits assumed); assay: flow cytometry (MFI) on RANKL-transfected 293 cells
T1 construct: whole, on cells; also called RANKL-transfected 293 cells; cells expressing RANKL
T1 sequence (looked up): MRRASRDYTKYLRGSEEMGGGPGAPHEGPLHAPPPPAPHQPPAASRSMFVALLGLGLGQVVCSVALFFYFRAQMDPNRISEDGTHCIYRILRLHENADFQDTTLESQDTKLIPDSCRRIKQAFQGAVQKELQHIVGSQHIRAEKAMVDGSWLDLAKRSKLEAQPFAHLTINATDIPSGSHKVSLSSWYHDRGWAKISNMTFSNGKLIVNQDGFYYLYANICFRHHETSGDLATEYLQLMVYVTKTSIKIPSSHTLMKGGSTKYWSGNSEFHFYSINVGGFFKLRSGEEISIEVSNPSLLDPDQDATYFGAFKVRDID

human RANKL protein [2] = target: T2, human RANKL protein (human, UniProt O14788 140-317, limits assumed); assay: competition ELISA: RANKL (0.5 ug/ml) pre-incubated with the antibody, then binding to coated human RANK (8 ug/ml) detected; blocked partner RANK
T2 sequence (looked up): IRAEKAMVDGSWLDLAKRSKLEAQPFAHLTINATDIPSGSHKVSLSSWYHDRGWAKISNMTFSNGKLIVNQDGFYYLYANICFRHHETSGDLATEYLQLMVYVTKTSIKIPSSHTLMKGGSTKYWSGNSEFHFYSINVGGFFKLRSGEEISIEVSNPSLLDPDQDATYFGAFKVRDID

human RANKL protein [3] = target: T2, human RANKL protein; assay: cell-based or functional assay
human RANKL protein [4] = target: T2, human RANKL protein; assay: surface plasmon resonance
[5] = target: T1, RANKL expressed on the surface of 293 …; assay: flow cytometry (MFI) on RANKL-transfected 293 cells; remark: listed apart in the source
human RANKL protein [6] = target: T2, human RANKL protein; assay: competition ELISA: RANKL (0.5 ug/ml) pre-incubated with the antibody, then binding to coated human RANK (8 ug/ml) detected; blocked partner RANK; remark: listed apart in the source
[7] = target: T1, RANKL expressed on the surface of 293 …; assay: flow cytometry (MFI) on RANKL-transfected 293 cells; remark: listed apart in the source
human RANKL protein [8] = target: T2, human RANKL protein; assay: competition ELISA: RANKL (0.5 ug/ml) pre-incubated with the antibody, then binding to coated human RANK (8 ug/ml) detected; blocked partner RANK; remark: listed apart in the source
[9] = target: T1, RANKL expressed on the surface of 293 …; assay: flow cytometry (MFI) on RANKL-transfected 293 cells; remark: listed apart in the source
human RANKL protein [10] = target: T2, human RANKL protein; assay: competition ELISA: RANKL (0.5 ug/ml) pre-incubated with the antibody, then binding to coated human RANK (8 ug/ml) detected; blocked partner RANK; remark: listed apart in the source

| Binder | EC50 [1] | IC50 (human RANKL protein [2]) | EC50 [7] | IC50 (human RANKL protein [8]) | also measured |
| --- | --- | --- | --- | --- | --- |
| clone EBI-51-4 rabbit anti-RANKL antibody (antibody, V domains shown) VH: QSVEESGGRLVKPGESLTLTCTASGFSLSSDVISWVRQAPGKGLEWIGYGWSGGPTYYANWAKGRFTISKTSSTTVDLKITSPTTEDTATYFCARGFNPFDPWGPGTLVTVSS VL: DMTQTPASVSEPVGGTVTIKCQASQNIGSNLAWYQQKPGQRPKLLIYRASTLASGVSSRFKGSGSGTQFTLTISDLECADAATYYCQQGYSAGNVDNSFGGGTEVVVK | 0.078 µg/mL | 0.0388 µg/mL |  |  |  |
| clone EBI-51-11 rabbit anti-RANKL antibody (antibody, V domains shown) VH: QSVEESGGRLITPGTPLTLTCTVSGFSLSTDVVSWVRQAPGTGLEWIGYTWSGGSTYYAIWAKGRFTISKTSSTTVDLKITSPTTEDTATYFCARGFNPFDPWGPGTLVTVSS VL: DMTQTPASVSEPVGGTVTIKCQASQNIGSNLAWYQQKPGQRPKLLIYRASTLASGVSSRFKGSGSGTQFTLTISDLECADAATYYCQQGYSAGNVDKHVFGGGTEVVVK | 0.0757 µg/mL | 0.0656 µg/mL |  |  |  |
| clone EBI-51-2 rabbit anti-RANKL antibody (antibody, V domains shown) VH: QSLEESGGRLVTPGTPLTLTCTASGFTISTDVISWVRQAPGKGLEWIGYTWSGGSTYYANWAKGRFTLSKTSSTTVDLKITSPTIEDTATYFCARGFNPFDPWGPGTLVTVSS VL: DMIQTPASVSEPVGGTVTIVCQASQNIGSNFAWYQQKPGQPPKLLIYRASTLASGVSSRFKGSGFGTQFTLTISDLECADAATYYCQQGYSAGNVDNNFGGGTEVVVK | 0.0621 µg/mL | 0.0389 µg/mL |  |  |  |
| clone EBI-51-1 rabbit anti-RANKL antibody (antibody, V domains shown) VH: QEQLEESGGGLVKPEGSLTLTCTASGFDLSTYYYMCWVRQAPGKGLEWIACIYTGRASTYYATWAKGRFTISKTSSTTVTLQMTSLTAADTATFFCASKAGDIWYYGMDLWGPGTLVTVSS VL: DMTQTPASVSEPVGGTVTIKCQASQNIGSNLAWYQQKPGQRPKLLIYRASTLASGVSSRFKGSGSGTQFTLTISDLECADAATYYCQQGYSAGNVDNNTFGGGTEVVVK | 0.0867 µg/mL | 0.0753 µg/mL |  |  |  |
| clone 327 rabbit anti-RANKL antibody (antibody, V domains shown) VH: QSLEESGGRLVTPGTPLTLTCTVSGFSLSKYEINWVRQAPGKGLEWIGYIDVGSGTWYASWAKGRFTISKTSTTVALRITSPTTEDTATYFCSRQYNPMDLWGPGTLVTVSS VL: DMTQTPASVEAAVGGTVTIKCQASQNIGSNLAWYQQKPGQRPKLLIYSASTLASGVPSRFKGSGSGTQFTLTISGVQCDDAATYYCQQGYSVGNVNNAFGGGTEVVVK |  |  |  |  | IC50 in a RAW cell assay (TRAP activity, OD 405 nM) (human RANKL protein [3]): 0.0075 µg/mL; Kd (human RANKL protein [4]): 2.13 nM; koff (human RANKL protein [4]): 0.0003 s⁻¹; kon (human RANKL protein [4]): 141000 M⁻¹ s⁻¹; EC50 [5]: 0.0871 µg/mL; IC50 (human RANKL protein [6]): 0.0416 µg/mL |
| clone EBI-51-23 rabbit anti-RANKL antibody (antibody, V domains shown) VH: QSVKESEGGLFKPTDTLTLTCTVSGFSLSIYEISWVRQAPGKELEWIGYIGVGGVTYYANWAKSRSTITRNTNQKMVALKMTSLTAADTATYFCARGYNPFDLWGPGTLVTVSS VL: DMTQTPASVEVAVGGTVTINCQASQNIGSNLAWYQQKPGQPPKLLIYKASTLASGVPSRLKGSGSGTEFTLTISGVQCDDAATYYCQQGYTTGNVDNPFGGGTEVVVK | 0.156 µg/mL | 0.0482 µg/mL |  |  |  |
| clone 415 rabbit anti-RANKL antibody (antibody, V domains shown) VH: QSVEESGGRLVTPGGSLTLTCTVSGFSLSNYEMNWVRQAPGKGLEWIGYIDVGSGTWYASWAKGRFTISKTSTTVDLKITSPTTEDTATYFCSRQYNPMDLWGPGTLVTVSS VL: DMTQTPASVEVAVGGTVTIKCQASQNIGSNLAWYQQKPGQRPKLLIYSASTLASGVPSRFKGSGSGTQFTLTISGVQCDDAATYYCQQGYSVGNVNNAFGGGTEVVVK |  |  | 0.16 µg/mL | 0.0545 µg/mL |  |
| clone 210 rabbit anti-RANKL antibody (antibody, V domains shown) VH: QSVKESGGGLVTPGGTLTLTCTASGFSLSNNAMSWVRQAPGKGLEWIGYIYPGGSPYYANWAKGRFTISRTSTTVDLKMTSLTTEDTATYFCARHVSDGGWYLYIWGPGTLVTVSL VL: DMIQTPASVEVAVGGTVTINCQASQSIGSNLAWYQQKPGQPPKLLIYGASTLASGVPSRFKGSGSGTQFTFTISDVECTAAATYYCQQAYSISNVDNAFGGGTEVVVK |  |  |  |  | EC50 [9]: 0.292 µg/mL; IC50 (human RANKL protein [10]): 0.071 µg/mL |
| clone 447 rabbit anti-RANKL antibody (antibody, V domains shown) VH: QEQLKESGGGLVTPGGILTLTCTASGFSLRSNAMSWVRQAPGKGLEWIGYIYPGGAPHYASWAKGRFTISRNSTTVDLKMTSLTTEDTATYFCARHVSGGGWYLDIWGPGTLVTVSL VL: DMIQTPASVEVGVGGTVTINCQASQNIGSNLAWYQQKPGQPPKFLIYGASTLASGVSSRFKGSGSGTRFTFTISDVECTDAATYYCQQAYSVGNVDNAFGGGTEVVVK |  |  | 0.0617 µg/mL | 0.0537 µg/mL |  |
| clone 420 rabbit anti-RANKL antibody (antibody, V domains shown) VH: QEQLKESGGGLVTPGGILTLTCTASGFSLRSNAMSWVRQAPGKGLEWIGYIYPGGAPHYASWAKGRFTISRNSTTVDLKMTSLTTEDTATYFCARHVSGGGWYLDIWGPGTLVTVSL VL: DMIQTPASVEVGVGGTVTINCQASQNIGSNLAWYQQKPGQPPKFLIYGASTLASGVSSRFKGSGSGTRFTFTISDVECTDAATYYCQQAYSVGNVDNAFGGGTEVVVK |  |  | 0.215 µg/mL | 0.0754 µg/mL |  |
| clone 174 rabbit anti-RANKL antibody (antibody, V domains shown) VH: QEQLQESGGGLITPGGTLTLTCTASGFSFNRNALSWVRQAPGKGLEWIGYIYSGGSPYYANWAKGRFNVSRTSTTVDLRMTSLTTEDTATYFCARHVSGGGWYLDIWGPGTLVTVSL VL: DMIQTPASVEVAVGGTVTINCQASQNIGSNLAWYQQKPGQPPKLLIYGTSTLASGVSSRFKGSGFGTQFTFTISDVECTDAATYYCQQAYSISNVDNAFGGGTEVVVK |  |  |  |  | EC50 [9]: 0.13 µg/mL; IC50 (human RANKL protein [10]): 0.0762 µg/mL |
| clone 416 rabbit anti-RANKL antibody (antibody, V domains shown) VH: QSVKESGGGLVTPGGTLTLTCTVSGFSLSRNAMSWVRQTPGKGLEWIGYIYSGSSPYYANWAKGRFTISRTSTTVDLKMTSLTTEDTATYFCARHVSDGGWYLDIWGPGTLVAVSL VL: DMIQTPASVEVVVGGTVTFNCQASQNIGSNLAWYQQKPGQPPKLLIYSASTLASGVPSRFKGSGSGTQFTFTISDVECTDAATYYCQQAYSISNVDNAFGGGTEVVVK |  |  | 0.203 µg/mL | 0.138 µg/mL |  |
| clone 191 rabbit anti-RANKL antibody (antibody, V domains shown) VH: QSVEESGGRLVTPGTPLTLTCTVSGFSLYTNLINWVRQAPGKGLEWIGYINYGASAYYANWAKGRFTISQTSSTTVDLKMTSLTIEDTATYFCARGYGNDWDRLDLWGQGTLVTVSS VL: IVMTQTPSPVSGAVGGTVTINCQASQSIGSNLAWYQQKPGQPPKLLIYSASILASGAPSRVSGSGYGTEFTLTISGVQCADAATYYCQQGYTTNADNIFGGGTEVVVE |  |  |  |  | EC50 [9]: 0.174 µg/mL; IC50 (human RANKL protein [10]): 0.0823 µg/mL |
| clone 411 rabbit anti-RANKL antibody (antibody, V domains shown) VH: QSVEESGGRLVTPGTPLTLTCTVSGFSLSSGVVSWVRQAPGKGLEWIGYAWSGGPTYYANWAKGRFTISKSSTTVDLKITSPTTADTATYFCARGYNGMDPWGPGTLVTVSS VL: DMTQTPASVEVAVGGTVTIKCQASQNIGSNLAWYQQKPGQPPKLLIYKASTLASGVPSRFRGSGSGTEFTLAISDLECADAATYYCQQGYTTKDVVNPFGGGTEVVVK |  |  | 0.108 µg/mL | 0.0771 µg/mL |  |
| clone 193 rabbit anti-RANKL antibody (antibody, V domains shown) VH: QSVEESGGRLVTPGTPLTLTCTFSGFSLSNNAINWVRQAPGKGLEWIGYTWSGGGTYCASWAKGRFTISKTSSTTVDLKMTSLTTEDTATYFCARAYDSEWDRLDLWGQGTLVTVSS VL: VMTQTPASVSGPVGGTVTIKCQASQSIGSNLGWYQQKPGQPPKLLIFSASNLESGVPSRFKGSGSGTQFTLTISDLECDDAATYYCQQGYTTNNVLNAFAGGTEVVVK |  |  |  |  | EC50 [9]: 0.135 µg/mL; IC50 (human RANKL protein [10]): 0.0665 µg/mL |
